Reference: PMC5336075, “Single-Step Purification of Monomeric l-Selectin via Aptamer Affinity Chromatography”

Biological target: T1, L-selectin LE-His (monomeric, lectin and EGF-like domains) (human, UniProt P14151 39-194)
T1 sequence: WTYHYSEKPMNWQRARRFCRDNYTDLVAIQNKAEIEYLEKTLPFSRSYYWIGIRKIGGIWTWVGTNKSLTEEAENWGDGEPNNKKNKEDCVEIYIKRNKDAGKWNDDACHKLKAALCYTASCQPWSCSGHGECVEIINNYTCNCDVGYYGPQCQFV
Experiment: SPR (single cycle kinetics); 1 mM CaCl2; protein in cell culture supernatant; abstract gives ~12 nM; SPR: HBS-Ca (20 mM HEPES pH 7.5, 150 mM NaCl, 1 mM CaCl2), Biacore X100, temperature not stated; column: PBS with 0.9 mM CaCl2 and 0.5 mM MgCl2, room temperature
Settings: protein: recombinant; tags: C-terminal His; label: 5' biotin

Work on GCCAGTACAAGGTGCTAAACGTAATGGC (structured_DNA) [LD201mΔ1] yielded a Kd of 11.2 ± 0.8 nM.
